Assay results as given in the DeepSol protein solubility set.

Assay: soluble on expression in E. coli; label from the status in PepcDB or PDB records

Sequence | soluble on expression in E. coli
MGSDKIHHHHHHMSHLPHLIAKLENHAEWVKRLVLVGQKSWHTPLQKGGWSPAEVIHHFHRWDDFARNYRFIPFLAGRATFTAGAHAKFNEHSEREVRDGLGKEAIIVQCLKSRYALIETVEKLREEAWEQTLTIGDHDLSIHTYLQGVIEHDRHHREQIEQFFSLEQQGKLPMVNITERCGEELPMNLLLLADPEQAMIERYLSGGLGFLAEVEGTPVGVIVLKDKGHGLFEVMNIAVAEQEQGKGYGKLLLLHGIHVALKRGADRIEIGTGNSSIGQLALYQRCGFSITAVDKDFFTKHYHEPIVEQGIRCEHMIRLAQDLK | not soluble
MGSDKIHHHHHHMSICIKDQIQNMNIVIGCTVGCAYCYARNNVKRWHMIDDFAAPEFFPGKLKMMEKKRPQNFLLTGMSDLSGWKPEWRNVVFAKIRENPQHQFLFLTKRPDLLDFDTDLENAWFGVTVTRKAELWRIDALRKNVRAKHYHVTFEPLFDDPGTVDLSGINWIVVGTMTGAQSRKIHTEPEWAWSLADQAHKLGIPVFMKEDIVPIIGDENMIQEMPEEFNKVLEVQKSWKK | not soluble
MGSDKIHHHHHHMSIQVKALSKRIDNREILRGITFTWQPGRIVGLVGRNGVGKTTLFRTMADHYLADEGELVIEGQSTLQQPYCRQKLFYIDTQRHFFGGRRLRQIITTYALAYDDFDQSQLTALLAAEHLSTKSYYQRLSKGQQMLFQILLALASHVPYIILDEPFDGLDIIVRERIVAYMVEEVAEHGVSFLISSHNLDELDGLCDQVLFLQHHELVADYDLESLRATARKFQLVFADKHIPAVVKEHGQLIKVYGRVLEVYFADYTPTIETALQQTQPLMMAVQPLTITDVFRVKLGDRQAVWGGV | not soluble
MGSDKIHHHHHHMSISIYAFYNNKGGVGKTTLCSNAATLYAEKNPKTQVLVIDMCPQANISQFLLGGGKKGYQINQRLQSSATRKNIVGFIDWLLKGNSNFRKPNTSYQVPVYRYNPNISENLYLIAGDSFLESLSLALNYAVINPANIKAWSEYMTAIRRLCEYEYNSETYKDMVVFIDCNPSFSMYTQMALVSSDKIVVPMMADFSSLEGIKSLFMLLFGKYPSAALKQYADGIITFNNQVEHFQLKLPLIYEFVFNNYTIKDGVATAFDSIRTELIDFCYEQFNKFPSLFAPCQHTPTSSKEWENYYFSGIKDFHTSGKVSSSLGIPMSMLPKESKYIMPDGSVVRLPISNYSQALEEIELFVDKIH | not soluble
MGSDKIHHHHHHMSIVQAKFEAKETSFHVEGYEKIEYDLVYVDGIFEIQNSALADVYQGFGRCLAIVDANVSRLYGNQIQAYFQYYGIELRLFPITITEPDKTIQTFERVIDVFADFKLVRKEPVLVVGGGLITDVVGFACSTYRRSSNYIRIPTTLIGLIDASVAIKVAVNHRKLKNRLGAYHASRKVFLDFSLLRTLPTDQVRNGMAELVKIAVVAHQEVFELLEKYGEELLRTHFGNIDATPEIKEIAHRLTYKAIHKMLELEVPNLHELDLDRVIAYGHTWSPTLELAPRLPMFHGHAVNVDMAFSATIAARRGYITIAERDRILGLMSRVGLSLDHPMLDIDILWRGTESITLTRDGLLRAAMPKPIGDCVFVNDLTREELAAALADHKELCTSYPRGGEGVDVYPVYQKELIGSVK | not soluble
MGSDKIHHHHHHMSKKVVVTGANGYIGAHLIAELQKHSQHFQTIAVDIDDKYIPKGVTFVSMDLLNEARKETLYKECGEPDICVHLAWRDGFQHNALSHIDDLPCHFHFLKNLADHGTTHFAIAGSFREYGSVNGMVDQDAVVIPDNFYTLAKSMLKQALEIYFKEKNICLQWLRPFTVYGNDSRNNSIMSKIIRWEDEGKQSFPFTSGNEEYDYVSVYEVARQIAAVISQREVDGIIDCCTGKPTRLGDKIEGFIRENHFKIRPEYGAFPKREYDSSVIYGDNRKITEIIKKCILF | not soluble
MGSDKIHHHHHHMSKPDRVVLIGVAGDSGCGKSTFLNRLADLFGTELMTVICLDDYHSLDRKGRKEAGVTALDPRANNFDLMYEQVKALKNGETIMKPIYNHETGLIDPPEKIEPNRIIVIEGLHPLYDERVRELLDFSVYLDIDDEVKIAWKIQRDMAERGHSYEDVLASIEARRPDFKAYIEPQRGHADIVIRVMPTQLIPNDTERKVLRVQLIQREGRDGFEPAYLFDEGSTIQWTPCGRKLTCSYPGIRLAYGPDTYYGHEVSVLEVDGQFENLEEMIYVEGHLSKTDTQYYGELTHLLLQHKDYPGSNNGTGLFQVLTGLKMRAAYERLTSQAAPVAASV | not soluble
MGSDKIHHHHHHMSKSITRKIQLTGGSTYIVSLPKEWIKALSLSAGDEVEIYQDTDMKLLIVPKSANTTDQKEIKKIIHCDNVTSEAIIREFIAYYIAGFSSVSITCPRMSSSTRAYIKDVVRRRLLGAEVIEEDVSTISIQFLVDEKELSIKKAISRAFTISYNMLRDSLEAISKADIELAKEISGRDDEVDRFFFYIARQLTISVKAINVLDSEGYNLTQMVDIYSVAKTIERVGDHANRIASLVEDVSKFSNKEDLVNLGLTILESYKSAMNAFLNEKKDIAHSLISNIEIFEKLRELQEIAIKSNDNPKIITSTSMTVESLRRVARYSADIAEATIDILAKSNK | not soluble
MGSDKIHHHHHHMSLDLSTPLQLIGRSVEFQRVVEVLAQDGDLLITGVPGSGRRTLVRWGVTEVRAIALDIDCIRATDGERFLQLLTEAINQNWQAEKIQSWLDKNAKEFFTFHPETKLKLLRSLSQKQIWQAFELLLELPQIMAVDLNKRLVLILQSFPHIRSWDRNGLWEISFRRKIKEHTHVSYVLIATIAETGNYSDENNYPLETIQLPPLNRDVLAVWAREILHGSKLTFDSRSKALQLFLDAVQGHIGDAMAIIRRLQTLCVPDSLVTENDVQQAIEGLLKDLSMTYESLLMLLPANQVHLLECLALDPTEKPQSKDYIQKHGLSRGGSLQGALTGLHHKGLIYGAEQGYLLAMPLLALWLRQRLS | not soluble
MGSDKIHHHHHHMSLKDYDAARLAQVREEVTAKYAELKAKNLSLDLTRGKPSAEQLDLSNDLLSLPGGDFRTKDGVDCRNYGGLLGIADIRELWAEALGLPADLVVAQDGSSLNIMFDLISWSYTWGNNDSSRPWSAEEKVKWLCPVPGYDRHFTITEHFGFEMINVPMTDEGPDMGVVRELVKDPQVKGMWTVPVFGNPTGVTFSEQTCRELAEMSTAAPDFRIVWDNAYALHTLSDEFPIVHNVIEFAQAAGNPNRFWFMSSTSKITHAGSGVSFFASSKENIEWYASHANVRGIGPNKLNQLAHAQFFGDVAGLKAHMLKHAASLAPKFERVLEILDSRLSEYGVAKWTSPTGGYFISVDVVPGTASRVVELAKEAGIALTGAGSSFPLHNDPNNENIRLAPSLPPVAELEVAMDGFATCVLMAALEV | not soluble
MGSDKIHHHHHHMSLKFDFSNLFEPNISGGLTDEDVKSVEEKVTSAVRNFVENTPDFAKLDRSWIDSVKSLEDWIINFDTVVVLGIGGSGLGNLALHYSLRPLNWNEMTREERNGYARVFVVDNVDPDLMSSVLDRIDPKTTLFNVISKSGSTAEVMATYSIARGILEAYGLDPREHMLITTDPEKGFLRKLVKEEGFRSLEVPPGVGGRFSVLTPVGLLSAMAEGIDIDELHEGAKDAFEKSMKENILENPAAMIALTHYLYLNKGKSISVMMAYSNRMIYLVDWYRQLWAESLGKRYNLKGEEVFTGQTPVKALGATDQHSQIQLYNEGPNDKVITFLRVENFDREIVIPETGRAELSYLARKKLSELLLAEQTGTEEALRENNRPNMRVTFDGLTPYNVGQFFAYYEAATAFMGYLLEINPFDQPGVELGKKITFALMGREGYTYEIKERSKKVIIE | soluble
MGSDKIHHHHHHMSLLTVKDLGQSFIDKTLYEDANFVLNKEDHMGVTGQNGVGKSTLIKILTGEILPDNGQVKWQNKIDVGYLDQYAKLAPGVTIRGFLRTAFDDLFQKEKELNELYTKYAETSDEDLLEKAGKVQTYLEENNFYDIDTEIEQVASGLGLADLGYDHDVSKLSGGQRSKIILGKLLLQNPDVLVLDEPTNYLDVSHIDWLVDYLNNFEGAFIVVSHDYDFLGRITNCIIDIDFGTITRYTGTLKQAMRQKAANRETYLKAYANQQRKIAKTEAYIRKNKAGTRAKSAKSREKQLARMDVLTPPKNNRRAKFEFPYVATASNLLLQTQDLVIGYDQALVKSAFNFSVGGDEKVAITGFNGIGKTTLLKTLLGQLKPIYGSYDLSVTAKLAYFKQDLTWPNNNMTPLQYLQEEFERKKPKELRQALARMGLTAQQAMSPLKELSGGEQEKVKLAKMQFEPANLLFLDEPTNHLDNDTKDALRKAIINFSGGVIIVSHERDFFRGDWIDKTIDIETMN | not soluble
MGSDKIHHHHHHMSLPKYVEQLLKEKSNVRVFSFKYDGKSYWLKQTEKLSFIWRFLKSNPAEMLKSEIIRLQELNKKSAPVPKLVLFGDNFFVTEDVGSSANTWVENEDLSIELRNKVLFDCAQALASLHKQNITHGRPALRDMIWCEEKVIFVDFECTSSSNNIDWQKIRDGLVFIHSLGRSSTVSDEQIALTVTHYRQYCDADIWQKTADFIYKYRWAYYVLRIFKPVARMDLIAIYRLFEAILKNQETL | not soluble
MGSDKIHHHHHHMSLYLDDTLSRIVELDLKDTRIVPFLAGEPGIGKTSFIYGIGERAGYKVFSISVNTLADKGDLTGARTLQDPADGKWKQMFFPHATFVEANDYALANPNETVVILLDEINRTDSDVTSASMTISTERRVGTTDLAPNVRLAVTGNLTGNVTHLDSASLTRFSLYEVKPSAETFMNIMGGRLNKYIRTVLTKYPEYIFMKPTTATALITTGDDDDDHTTNAKQMMDFNAVLGSDQDMVQFTAPRTIEGLSVWLNNADDDFLRLLLQEKVDGLARSMSLLQATLESHTGDTAFTAEVLSEMTNDLLSSASQAPSGPIKPFVYDRLAAAPSNTVLEQEVHTLSLNDRADVLLFALHDTVNNAAPSIIAHLASEGVLDELPKDRISKIVSLGPVPTANYHALTRQDTTLTRNLGPAVLGFLES | not soluble
MGSDKIHHHHHHMSNDETVEKVTQQVSELKSTDVKEQVVTPWDVEGGVDEQGRAQNIDYDKLIKQFGTKPVNEETLKRFKQVTGREPHHFLRKGLFFSERDFTKILDLYEQGKPFFLYTGRGPSSDSMHLGHMIPFVFTKWLQEVFDVPLVIELTDDEKFLFKHKLTINDVKNFARENAKDIIAVGFDPKNTFIFSDLQYMGGAFYETVVRVSRQITGSTAKAVFGFNDSDCIGKFHFASIQIATAFPSSFPNVLGLPDKTPCLIPCAIDQDPYFRVCRDVADKLKYSKPALLHSRFFPALQGSTTKMSASDDTTAIFMTDTPKQIQKKINKYAFSGGQVSADLHRELGGNPDVDVAYQYLSFFKDDDVFLKECYDKYKSGELLSGEMKKLCIETLQEFVKAFQERRAQVDEETLDKFMVPHKLVWGEKERLVAPKPKTKQEKK | not soluble
MGSDKIHHHHHHMSNEFDSDRYSTYWAEEWLDVKQYSPIGRHTRRKIMQLLARCPAPDTFADFGSGEGSLLSMVHAKYPAARLFGCDFASESVRRCRQRLPQAEIVLKDLTDPEPPFAGRVSVGVCSEVLEHIEDDARALHNLGTWAEHVIITVPGGELDESSRAVGHLRHYTKDSLRGLARRAGLEVLHLEEWGFPFSYPWYARVRNKAGYGMMVGRYSMRKKLLCHALYLLFFGNDLFSSGNKLFMLCRGSKA | not soluble
